Assay results taken from patent US20210231650A1.

Target: RGD peptide
Test: single-molecule conductance, electrodes carrying RGD peptide

single-molecule conductance peak G: 0.3 nS
Substance: αvβ3 integrin (receptor)
